Experimental data: US7217694B2, “Inhibitors of IAPP fibril formation and uses thereof” (The Governing Counsel of the University of Toronto, priority 2000, dated 2007)
“Also recorded” adds a separate entry of the source. No end group written: not given here.

How the values were obtained:
[1] = biological target: T1, hIAPP 1–37 (Homo sapiens, UniProt P10997); assay: Circular dichroism (CD) of IAPP conformational change, random coil to β-sheet; type: biochemical
T1 construct: Synthetic human IAPP (1–37) was purchased from BACHEM; purchased BACHEM (Torrence, Calif.); host or cells: chemical synthesis
T1 sequence (P10997 34-70): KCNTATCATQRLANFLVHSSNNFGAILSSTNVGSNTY
Source text: (§1) FIG. 1 illustrates the sequence of the amyloid-β (Aβ) peptide and its proposed structural domains. A peptide-based approach similar to that used for Aβ (Tjernberg, et al, J Biol Chem 272:12601–12605, 1997) has been used for targeting two key domains in IAPP initially ranging from the 8–20 and 20–29 sequences as shown in FIG. 2. These peptides, as has been shown for Aβ peptides, are able to bind to the full-length IAPP peptide and alter fibrillogenesis. The peptides disrupt fibrillogenesis by disrupting the folding into the amyloidogenic β-sheet conformation, disrupting protofilament interactions, and/or interfering with side chain interactions within the folded IAPP, which are necessary for aggregation and fibril formation. The peptides that have been examined (shown in FIG. 2) were small, synthetic hexapeptides that correspond to the principal sequence domains of IAPP. […] The in vitro assays included: Circular Dichroism (CD), to look at changes in folding of the amyloidogenic β-sheet; negative stain electron microscopy (EM) to examine changes in fibril morphology and relative density; and ThT fluorescence assay which provides a quantitative assessment of fibril formation.
Synthetic human IAPP (1–37) was purchased from BACHEM (Torrence, Calif.), synthetic peptides spanning the region from IAPP 8 to 20 and 19–31 (FIG. 3) were synthesized by the Peptide Synthesis Laboratory at the University of Toronto using standard FMOC (Fluoroenylmethoxycarbonyl) based solid phase peptide synthesis methodology. The peptides were purified by reverse phase HPLC using water/acetonitrile mixtures buffered with 0. 1% trifluoroacetic acid, on a POROS 20R2 column. The synthetic peptides were solubilized in […] (1 mg/ml), filtered (0.2 μm), aliquotted and lyophilized (Higham, C E., et al., FEBS Lett. 470: 55–60, 2000). Aliquots were reconstituted as required in 20 mM sodium acetate buffer pH 6.5.
CD was used to measure the peptide conformational changes associated with fibril formation. CD experiments were carried out at room temperature, and spectra (average of 5 scans) were collected using a Jasco J720 spectropolarimeter and quartz cuvettes with a path length of 1 mm. […]

[2] = biological target: T1, hIAPP 1–37; assay: Negative stain electron microscopy of IAPP fibril morphology and density; type: biochemical
Source text: as §1
TEM was used for structural analysis of in vitro assembled fibrils. Aliquots (4 μl) were applied to pioloform and carbon coated grids. The samples were incubated on the grids for 3 minutes at room temperature, excess material blotted off and stained with 1% phosphotungstic acid (PTA). Excess PTA was blotted off and the sample was left to air dry. All samples were examined using a Hitachi 7000 electron microscope with an accelerating voltage of 75 kV.
In preliminary work the series of peptides were synthesized from the 20–29 domain and examined, via CD, EM and ThT fluorescence, at two molar ratios (1:10 and 1:20) in comparison to the full-length IAPP residues 1–37. The following data (FIGS. 5A to 5D, 6A to 6C and 7A to 7B) were obtained.

[3] = biological target: T1, hIAPP 1–37; assay: Sedimentation assay (tyrosine scan) of soluble versus insoluble hIAPP; type: biochemical; settings: hIAPP 11 μM with 10 fold excess (110 μM) peptide
Protocol: Aliquots of lyophilized hIAPP 1–37 were dissolved in 20 mM acetate buffer (pH 6.5) to 11 μM and incubated in a total volume of 500 μl at room temperature. Tyrosine emission spectra were collected (emission wavelength 275 nm) on a Beckman DU530 spectrophotometer for each sample at time 0. Following a 24 hour incubation at room temperature, the soluble and aggregated peptides in each sample were separated by centrifugation at 16,000 g for 20 minutes, and the emission spectra were measured on the soluble fractions. The samples were then vortexed to resuspend the entire contents of each tube, and were incubated for an additional 24 hours. This process was repeated for a total of 72 hours of incubation. For co-incubation experiments, hIAPP was incubated with a 10 fold excess concentration (110 μM) of the inhibitory peptides SNNFGA (SEQ ID NO. 11), and GAILSS (SEQ ID NO. 14).
Sedimentation assays were performed to confirm the results from CD and electron microscopic analysis (FIGS. 7A and 7B) on the ability of peptides SNNFGA (SEQ ID NO. 11) and GAILSS (SEQ ID NO. 14) to inhibit IAPP fibril formation. hIAPP (11 μM) was incubated for a period of 72 hours in 20 mM acetate buffer alone, or with a 10 fold excess (110 μM) of the peptides.
A tyrosine scan was used to determine the amount of soluble hIAPP remaining in solution after a 72-hour incubation. […] Following a 24-hour incubation, the amount of soluble hIAPP had reduced to 8%. However, when hIAPP was incubated in the presence of the peptide SNNFGA (SEQ ID NO. 11), the amount of IAPP remaining in solution was approximately […], and in the presence of peptide GAILSS (SEQ ID NO. 14), more than 80% of the hIAPP remained in solution. By 48 hours, the hIAPP incubated alone was no longer soluble and was not detectable using a tyrosine scan. However, approximately 25% of the hIAPP was still measured when co-incubated with either peptide. Similarly, after 72 hours approximately 20% of the hIAPP was still soluble in the sample co-incubated with peptide SNNFGA (SEQ ID NO. 11) or GAILSS (SEQ ID NO. 14).

[4] = test system: RIN-1056A cells; assay: IAPP toxicity assay (alamar Blue); type: cell-based
Protocol: RIN-1056A cells were plated into 96 well plates at a density of 2×10^4 cells/well in Dulbecco's Modified Eagle Medium (DMEM) (Gibco-BRL) supplemented with 5% Fetal calf serum (Gibco-BRL), 100 U/ml penicillin (Gibco-BRL), and 100 U/ml streptomycin (Gibco-BRL). After an initial 24 h of culture, cells received fresh medium containing 10 μM hIAPP or rat IAPP alone, or in combination with 200 μM SNNFGA (SEQ ID NO. 11). Cells in control wells received fresh medium only. Cells were incubated with peptide at 37° C., 5% CO2, for 24 hours, after which alamar Blue ( 1/10th volume) was added to each well. Cells were incubated in the presence of alamar Blue (MEDICORP, Montreal) for a period of 8 hours, and data was collected at 2 hour intervals. The fluorescence of the samples was measured using a SpectraMAX Gemini XS Microplate Spectrofluorometer (Molecular Devices) with an excitation wavelength of […] and an emission wavelength of 590 nm. Data were collected using the SoftMax Pro 3.1 software for MacIntosh.
The toxicity of hIAPP fibrils on pancreatic β cell lines has been well documented. […] cells were incubated for 24 hours in the presence of 10 μM hIAPP alone or in the presence of the peptide SNNFGA (SEQ ID NO. 11). An alamar Blue assay was used to quantitatively measure the proliferation of the cells, and compare the cytotoxic effects of various additives to the cultures.

[5] = 24-hour incubation, normalized to hIAPP alone at time 0

In the case of GAILSS, the “inhibition of IAPP β-sheet transition and aggregation (CD)” value ([1]; 1:10 or 1:20 molar ratio (10- or 20-fold molar excess)) is reported as “very strong inhibitors of IAPP β-sheet transition; also recorded: majority of IAPP in these samples was maintained in a random conformation”, the “inhibition of IAPP β-sheet conformational change at reduced concentrations (CD)” value ([1]; 5-fold molar excess (1:5) or 1:1 molar ratio) is reported as “very strong inhibitor; also recorded: capable of maintaining the majority of hIAPP in a random coil conformation” and the “effect on IAPP β-sheet formation / precipitation (CD)” value ([1]; 48-hour incubation, pH 6.5) is reported as “able to prevent the attenuation of signal due to precipitation of IAPP”. The “inhibition of IAPP β-sheet formation / fibril formation, overall statement (CD)” value ([1]; molar ratio not stated) was “greatest inhibition of IAPP fibril formation”, the “effect on initial random structure of IAPP (CD)” value ([1]; time 0, 1:10 or 1:20 molar ratio) was “had no effect on the initial random structure of IAPP” and the “prevention of IAPP fibril formation (EM)” value ([2]; 10- or 20-fold molar excess) was “did not completely prevent fibril formation”. For the same molecule, the “effect on IAPP fibril morphology / density / aggregation (EM)” value ([2]; molar ratio not stated) was “caused a disruption in IAPP fibrillar structure; also recorded: fibrils formed were less numerous; also recorded: absence of fibrillar aggregates which could act as seeds”, the “inhibition of normal IAPP fibrillar aggregation (EM)” value ([2]; reduced inhibitor concentrations) was “effective inhibitors of normal IAPP fibrillar aggregation” and the “amount of hIAPP remaining in solution” value [3, 5] was “more than 80%”. For the same molecule, the “amount of hIAPP remaining in solution” value ([3]; 48 hours) was “approximately 25%” and the “amount of hIAPP remaining in solution” value ([3]; 72 hours) was “approximately 20%”.

SNNFGA [SNNFGA] was tested, and the “direct toxicity of the peptide to pancreatic β cells in culture” value [4] was “not directly toxic”, the “amount of hIAPP remaining in solution” value [3, 5] was “approximately 15%” and the “amount of hIAPP remaining in solution” value ([3]; 48 hours) was “approximately 25%”. For the same molecule, the “amount of hIAPP remaining in solution” value ([3]; 72 hours) was “approximately 20%”.

`CC[C@H](C)[C@H](NC(=O)[C@H](C)NC(=O)CNC(=O)[C@H](Cc1ccccc1)NC(=O)[C@H](CC(N)=O)NC(=O)[C@H](CC(N)=O)NC(=O)[C@H](CO)NC(=O)[C@H](CO)NC(=O)[C@H](Cc1c[nH]cn1)NC(=O)[C@@H](NC(=O)[C@H](CC(C)C)NC(=O)[C@H](Cc1ccccc1)NC(=O)[C@H](CC(N)=O)NC(=O)[C@H](C)NC(=O)[C@H](CC(C)C)NC(=O)[C@H](CCCNC(=N)N)NC(=O)[C@H](CCC(N)=O)NC(=O)[C@@H](NC(=O)[C@H](C)NC(=O)[C@@H]1CSSC[C@H](NC(=O)[C@@H](N)CCCCN)C(=O)N[C@@H](CC(N)=O)C(=O)N[C@@H]([C@@H](C)O)C(=O)N[C@@H](C)C(=O)N[C@@H]([C@@H](C)O)C(=O)N1)[C@@H](C)O)C(C)C)C(=O)N[C@@H](CC(C)C)C(=O)N[C@@H](CO)C(=O)N[C@@H](CO)C(=O)N[C@H](C(=O)N[C@@H](CC(N)=O)C(=O)N[C@H](C(=O)NCC(=O)N[C@@H](CO)C(=O)N[C@@H](CC(N)=O)C(=O)N[C@H](C(=O)N[C@@H](Cc1ccc(O)cc1)C(N)=O)[C@@H](C)O)C(C)C)[C@@H](C)O` [hIAPP, reference compound] was tested, and the “decrease in cell viability compared to cells in culture medium alone” value ([4]; 10 μM hIAPP, 24 hours) was 35–40%.
